# Data: the supplement of paper PMC12764529
# ± gives the half width of the 95% confidence interval.
# Assay: folding stability dG unfold from chymotrypsin proteolysis; higher = more stable
# In short: (§1)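 Digests were run with trypsin and chymotrypsin at 11 concentrations in threefold dilutions, plus a no-protease condition, on designed mini-proteins in a PA-tagged cDNA display construct. The mini-proteins were under 80 residues, had no cysteine, and were kept only when AlphaFold2 dimer inter-PAE was above 15. After sequencing, Bayesian fitting of the counts gave K50, from which unfolding free energy was derived against a sequence-predicted unfolded-state K50 and a shared folded-state K50, per protease or combined.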
row,Sequence,folding stability dG unfold [kcal/mol]
1,SAGGSAGGSAGTRTITIFIPVPPGKMTPEDALDFIKPFFPDVKIEVEPVNNYYAIEITVKSAGGSAGGSAGG [r11_7_TrROS],0.825 ± 0.045
2,SAGGPVKLVKVQFINPETGEPVEISGPASKVLEIAEKLGLNVTSVTVIENPNTILVVVPGPNQLVVVTDSAG [r5_521_TrMRF],1.45 ± 0.018
3,SAGGSAKKVEKVTVTVLIEKDGKLYLVRVTVTRPKVKYDKKTGKFTVTLKPGEKVEIKVEVVELPESAGGSA [r15_1040_TrROS_Hall],3.7 ± 0.12
4,SAGGSAGGSAMTPVTTTQTISFPGSEEEARAEAERIREELEAKGLTVSFEFLPGGTLKITVASAGGSAGGSA [r18_262_JUSTAS],2.398 ± 0.021
5,SAGGSAGGSAGGPNGKPLNLKIEIPKIEKIQRVNGRPVIRIPVRMTFPGKEVKMTIWIPISAGGSAGGSAGG [r7_739_TrROS],2.44 ± 0.048
6,SAGGSAGGSGSMKEIEIEIPKDDPQLIEKIKEELKQKNSKKVEVKEIKKTPEGKYKVKIIIEESAGGSAGGS [r12_91_JUSTAS],0.901 ± 0.081
7,SAGKPNIVVHPEYEQEKDPGDPGQPRIREMRVRVYLPNGRPITFRYRSPEDAVDRLLKRIQENPDLLKSAGG [r19_123_TrROS],2.11 ± 0.13
8,SAGGSAGGSASNPKIISVENLGNYTVVLAEDPEDGSLVLVVINPDNNSALVFKDNKPVAVFSAGGSAGGSAG [r3_297_TrMRF],1.66 ± 0.11
9,SAGGSMKFSATVEYDPANNIYTVTVPITRKDTGEVIPVSVPVPGSDLTTAEQLAEEIAEKLEKEGLSAGGSA [r2_221_JUSTAS],0.518 ± 0.14
10,SAPKVISATVTYNPATGKVTVTVTLEDADGPVTVTYTFDGDGNVPVTVYDTRTTKPLGTITVPADQLNLSAG [r14_608_TrMRF],1.21 ± 0.23
11,SAGGSAGGSMPVVEVEITVSYTVPETGEILTKPETITMTPEEAEKIKEELEKKGYKVEVKYNPKSAGGSAGG [r6_97_JUSTAS],1.21 ± 0.067

# Assay: folding stability dG unfold from trypsin proteolysis; higher = more stable
# In short: as §1
row,Sequence,folding stability dG unfold [kcal/mol]
1,SAGGSAGGSAGGEIKPGETITNLKVKIRNKKTGKTITVTLKPGETAEDLAKKLGVEIEPSAGGSAGGSAGGS [r10_202_TrROS_Hall],0.622 ± 0.12
2,SAGGSAGGSAGEKPVYYARVTEVKYNPENKELEIKLENGETITLSLEELKSLKPGDIIRISAGGSAGGSAGG [r11_124_TrROS_Hall],1.88 ± 0.057
3,SAGMTVTLPGDKSYTVTVKYTLYDADGKKLGEKTYTKTVTVAPNSTVTINIPNTYPNTVVTEVTVTPESAGG [r19_295_JUSTAS],3.91 ± 0.35
4,SAGMTEEELKKLKEKFPNLKIEPVKTITIKVEPNASVEEIAKKLKELLNIDKVEIEVNEETGEITIRIYSAG [r5_694_TrROS_Hall],2.98 ± 0.15
5,SAGGSAGGSAGRVEKIVSNLKPLGYEVLSVEETEDYVLAVVYDPFTDEPRVFRFPKDSPFSAGGSAGGSAGG [r11_428_TrMRF],1.27 ± 0.017
6,SAWIPIDSPEEAKDIAKEIADNYGLEDTKVEPMPDNYVVVKLEFEMPNENGQKRKRNITIYYDPDGKFWSAG [r14_420_TrROS],0.973 ± 0.04
7,SAGGSAGGSKPPPTVEIEITLEDGTVLRIRVTPDRIEIENLETGKRFTFPPGATIEIEVRKLPSAGGSAGGS [r12_227_TrROS_Hall],3.95 ± 0.82
8,SAGADSVTYDPETNLVVVYRRVGDDVEVLVLEPVPLPVVVVVPVEDAVTRNPELRPLLEQNPDFYLVFPSAG [r5_957_TrMRF],1.88 ± 0.036
9,SAGGSAGGSAGLFPGPENIPKVSITPFEVENPLDDYTVTLYRVDFPDLGLSLPAALVSKRSAGGSAGGSAGG [r17_31_TrMRF],0.698 ± 0.15
10,SAGKIKIPPGQEIWIIVNVEWQPDPDNGEPRYTVTVMKIKIKADPNGGLKIESIETKIVPAEDLKDNGLSAG [r5_340_TrROS],1.84 ± 0.036
11,SAGGSAGGSAPRPIEIMFPWDSPEDAHEEAEEIARTFAQEDNIKVKVEYYPREGWVKVKIRVSAGGSAGGSA [r18_368_TrROS],1.21 ± 0.085
12,SMEVVEEFTLPNGTRITLTKNEDGTVTVTLETTVKNPETGKTTTKTVTITVKLEPGEEYSLEELLATLLSSA [r9_614_TrROS_Hall],3.5 ± 0.12
13,SPDVKILDIERHPDDGSISIKLKFPDGWPVTLHYNPDGSHTIHNPGNGAPIQIKYDGNQLKIELPDNLKFSA [r9_233_TrROS],0.478 ± 0.023
14,MALPERLRELTPPVPPELALEAALKRAEELGLEEVREVRVLSVTPDGYIEVEIELPEGGSVRIRIPLEDLFS [r1_435_TrMRF],1.51 ± 0.071
15,SKYVQVRFPNYTIMVKKRKSPNGKPEVEVMLYNPPNGKMIPVEVKSPEDAEEAVKDAIRAMFPDEELRDLSA [r9_749_TrROS],0.827 ± 0.09
16,SAGGSAGGSVITLPNGVKLVTVKVSRPELDETETVTVPLEGMTLEEIKERLKKEGYKEVVFLESAGGSAGGS [r12_792_JUSTAS],1.19 ± 0.032
17,SAEEPSLEELLAAIEEEAEARAREFLERHPDVPPGAVLKVPVTLTYPLRLGDVEYPVTFEAEVDVVVPASAG [r14_486_TrMRF],1.74 ± 0.041
18,SAGGSAGGSEEEVEIVDVEIEEKDGKLVIRAKIRNKETGELYEVTLVFDKETGELHLEVRKLPSAGGSAGGS [r12_14_TrROS_Hall],3.99 ± 0.097
19,SAGSPSMVVTVRLTVTTTDPVTGTTTTTTLDIPVSPASLSTPPAQVAAALTAAAPATTIDVTVDSVLLSAGG [r19_189_JUSTAS],1.794 ± 0.017
20,SAGGSAGGSADDGDPNKQEPKPEVKVRPIEIRMSFAYYPPNGEPWMFSIEIRIWVYDGGLVSAGGSAGGSAG [r3_380_TrROS],3.85 ± 0.1
21,SAGGSAGGSAQWVIRIKMPNGSTRELRIPGMTPEKAREIAKELADQNNIKDVDIYPPGQKISAGGSAGGSAG [r3_160_TrROS],0.981 ± 0.041
